This note sets out measurements from paper PMC8389850, “The PilB-PilZ-FimX regulatory complex of the Type IV pilus from Xanthomonas citri” (PLoS Pathogens, 2021).

A value given as a limit tells only on which side of the number the result lay.

For assay [1], the target named is PilZ_(W69_5OHW) (Xanthomonas citri pv. citri strain 306). As to the kind of experiment: other fluorescence titration.
The target of assay [2] is PilB_(12-163) (Xanthomonas citri pv. citri strain 306). As to the kind of experiment: SEC-MALS. For orientation: SEC sorts molecules by how far they enter the pores of the column.
Assay [3] addresses PilB_(1-190), His tag removed (Xanthomonas citri pv. citri strain 306). As to the kind of experiment: SEC-MALS.
The target of assay [4] is full-length FimX (Xanthomonas citri pv. citri strain 306). The experiment in a line: SEC-MALS; full-length proteins and complexes; silica-based WTC column 7.8/300; 50 mM Tris-HCl pH 8.0, 50 mM NaCl, 5 mM MgCl2; without and with ATPγS and/or c-di-GMP (1:2 protein to ligand).

Regarding FimXEAL (domain or fragment), in assay [1], the Kd was determined as 200 nM.
Same read-out and setting: for “His-tagged PilB_(1-190) (from UniProt A0AAI7ZH88 1-190) (domain or fragment)” the value was under 4.1 nM.
In the case of “PilZ (XAC1133), wild type, recombinant (from UniProt A0AAI7ZDW4 1-117) (natural protein)”, the stoichiometry N in assay [2] and in assay [3] was 1 each time.
In assay [4], full-length FimX (natural protein) yielded a stoichiometry N of 2.

What is called Kd is a measure of binding affinity in units of concentration. Lower therefore signals a tighter complex. For orientation: stoichiometry N means the number of molecules, sites or subunits per partner or assembly.
